Laboratory results published in patent publication US11453711B2, “Fusion proteins of GLP-1 and GDF15 and conjugates thereof” (BEIJING QL BIOPHARMACEUTICAL CO., LTD., priority 2019, dated 2022).

Columns and labels:
[1] = Body weight and food intake in C57BL/6 mice, unconjugated fusion proteins, 30 nmol/kg daily 10 days; type: in vivo; conditions: for Body weight reduction at 30 nmol/kg (% reduction compared to vehicle)(Day11) / Cumulative food intake reduction at 30 nmol/kg (% reduction compared to vehicle)(Day11): C57 mice, 30 nmol/kg daily, Day11, unconjugated fusion proteins
Protocol: (§1) 10 week old male C57BL/6 mice were injected everyday subcutaneously with 15 nmol/kg of the fusion protein conjugates (i.e., MLC002, MLC 004, MLC 005, MLC 006, MLC 007, MLC 008, and MLC 009) for 14 days. Food intake and body weight were measured daily and five animals were used for each treatment group. Body weight (BW) was monitored for each individual animal, but food intake for each group animals was measured together. Day 1 and Day 14 are first day and last day of molecule dosage. % BW loss=100*(BW on Day n-BW on Day 1)/(BW on Day 1). Cumulative food intake on Day n represents sum of food intake from Day 1 to Day n. Data are indicated as mean values and standard error (SEM) or pooled values. Statistical analysis was performed by One-way ANOVA. Body weight reduction on Day 11 is calculated by −1*(% BW loss−% BW loss of vehicle group); Cumulative food intake reduction is calculated by −100*(cumulative food intake-cumulative food intake of vehicle)/cumulative food intake of vehicle.
As described in the above method, a daily dose of 30 nmol/kg of the unconjugated fusion proteins (i.e., MLC100, MLC023, MLC022, MLC020, MLC003, MLC124, MLC021, MLC019, MLC102) were administered to C57BL/6 for 10 days. Data were calculated as above method. Day 1 and Day 10 are first day and last day of administration.

[2] = Body weight and food intake in C57BL/6 mice, fusion protein conjugates, 30 nmol/kg daily 10 days; type: in vivo
Protocol: as §1
Data were calculated in the same way as described above. Day 1 and Day 10 are first day and last day of the administration.
MLC014 was used as a negative control. MLC014 has an amino acid sequence of SEQ ID NO: 261, which contains a linker fused to the N terminal of GDF15, with a CRM conjugated to the lysine residue in the linker. Tirzepatide was also used as a control.

[3] = Pharmacokinetic measurement in mouse, single sc dose 30 nmol/kg, plasma ELISA; conditions: for Cmax: read-out: Cmax (nmol/L), single sc dose 30 nmol/kg; for AUC0-24 h / Terminal t1/2 / Tmax: single sc dose 30 nmol/kg
Protocol: Each fusion protein was injected subcutaneously into C57BL/6 mice (n=3/group) once and plasma samples were collected at designed time points and analyzed by ELISA method. Plasma concentrations are indicated as mean values and standard error (SEM).
6-8 week old male C57BL/6 mice were administrated in a single subcutaneous dose of 30 nmol/kg of the fusion protein conjugates or unconjugated fusion proteins (i.e., MLC002, MLC004, MLC005, MLC006, MLC007, MLC008, MLC009, MLC013, MLC017, MLC047, MLC074, MLC075, MLC089, MLC093, MLC003 and MLC019) (n=3/group). Plasma samples were collected pre-dose (−5 min), 0.5 hr, 1 hr, 2 hr, 4 hr, 6 hr, 8 hr, 12 hr, 24 hr, 48 hr and 72 hr after the injection. The concentrations of the fusion protein conjugates in the plasma were measured by an ELISA assay which has immunoreactivity towards both GDF15 and intact N-terminal of GLP-1. Based on the graph showing plasma concentration of each protein versus time after subcutaneous injection, the pharmacokinetic parameters (including Tmax, Cmax, T1/2, AUC) were calculated by WinNonlin software.

B1: MLC124: unconjugated GLP-1/GDF15 fusion protein, linker of at least 60 residues (protein)
chain: HGEGTFTSDVSSYLEEQAAKEFIAWLVRGGGGQEPGAQPGQEPGAQPGQEPGAQPGQEPGAQPGQEPGAQPGQEPGAQPGAQPGAQPGAQPARQGDHCPLGPGRCCRLHTVRASLEDLGWADWVLSPREVQVTMCIGACPSQFRAANLHAQIKTSLHRLRPDTVPAPCCVPASYNPMVLIQRTDTGVSLQTYDDLLARDCHCI
[1]
  Body weight reduction at 30 nmol/kg (% reduction compared to vehicle)(Day11): 23.0%
  Cumulative food intake reduction at 30 nmol/kg (% reduction compared to vehicle)(Day11): 38.0%
[1]; unconjugated fusion proteins, 30 nmol/kg daily 10 days, by linker length
  in vivo efficacy (food intake and body weight reduction): the most significant results among all the tested fusion proteins

B2: MLC022: unconjugated GLP-1/GDF15 fusion protein (protein)
chain: HGEGTFTSDVSSYLEEQAAKEFIAWLVRGGGGQEPGQEPGQEPGQEPGQEPGQEPARQGDHCPLGPGRCCRLHTVRASLEDLGWADWVLSPREVQVTMCIGACPSQFRAANLHAQIKTSLHRLKPDTVPAPCCVPASYNPMVLIQKTDTGVSLQTYDDLLAKDCHCI
[1]
  Body weight reduction at 30 nmol/kg (% reduction compared to vehicle)(Day11): 10.4%
  Cumulative food intake reduction at 30 nmol/kg (% reduction compared to vehicle)(Day11): 30.0%

B3: MLC017: fusion polypeptide SEQ ID NO: 264 conjugated with Moiety A at 55K of Linker (conjugate)
chain: HGEGTFTSDVSSYLEEQAAREFIAWLVRGGGGQEPGAQPGQEPGAQPGQEPGAQPGQEPGAQPGQEPGAQPGQEPGAQPGAQPGAKPGAQPGAQPGAQPGAQPGAQPGAQPARQGDHCPLGPGRCCRLHTVRASLEDLGWADWVLSPREVQVTMCIGACPSQFRAANLHAQIKTSLHRLRPDTVPAPCCVPASYNPMVLIQRTDTGVSLQTYDDLLARDCHCI
modifications: Moiety A conjugated at linker K55
[2]
  Body weight reduction at 30 nmol/kg (% reduction compared to vehicle)(Day11): 25.4%
  Cumulative food intake reduction at 30 nmol/kg (% reduction compared to vehicle)(Day11): 52.3%
[3]
  Cmax: 29.4 nmol/L
  AUC0-24 h: 0.4385 µM·h
  Terminal t1/2: 11.1 h
  Tmax: 7.3 h

B4: MLC086: fusion polypeptide SEQ ID NO: 377 conjugated with Moiety C at 37C of Linker (conjugate)
chain: HGEGTFTSDVSSYLEEQAAKEFIAWLVRGGGGQEPGAQPGQEPGAQPGQEPGAQPGQEPGAQPGQEPCQAPGQEPGAQPGAQPGAQPGAQPGAQPGAQPGAQPGAQPGAQPARQGDHCPLGPGRCCRLHTVRASLEDLGWADWVLSPREVQVTMCIGACPSQFRAANLHAQIKTSLHRLKPDTVPAPCCVPASYNPMVLIQKTDTGVSLQTYDDLLAKDCHCI
modifications: Moiety C conjugated at linker Cys37
[2]
  Body weight reduction at 30 nmol/kg (% reduction compared to vehicle)(Day11): 24.4%
  Cumulative food intake reduction at 30 nmol/kg (% reduction compared to vehicle)(Day11): 34.8%

B5: MLC074: fusion polypeptide SEQ ID NO: 369 conjugated with Moiety B at 41C of Linker (conjugate)
chain: HGEGTFTSDVSSYLEEQAAKEFIAWLVRGGGGQEPGAQPGQEPGAQPGQEPGAQPGQEPGAQPGQEPGAQPCQEPGAQPGAQPGAQPGAQPGAQPGAQPGAQPGAQPGAQPARQGDHCPLGPGRCCRLHTVRASLEDLGWADWVLSPREVQVTMCIGACPSQFRAANLHAQIKTSLHRLKPDTVPAPCCVPASYNPMVLIQKTDTGVSLQTYDDLLAKDCHCI
modifications: Moiety B conjugated at linker C41
[2]
  Body weight reduction at 30 nmol/kg (% reduction compared to vehicle)(Day11): 20.0%
  Cumulative food intake reduction at 30 nmol/kg (% reduction compared to vehicle)(Day11): 39.9%
[3]
  Cmax: 102 nmol/L
  AUC0-24 h: 1.8247 µM·h
  Terminal t1/2: 18.0 h
  Tmax: 10.7 h

B6: MLC075: fusion polypeptide SEQ ID NO: 369 conjugated with Moiety C at 41C of Linker (conjugate)
chain: HGEGTFTSDVSSYLEEQAAKEFIAWLVRGGGGQEPGAQPGQEPGAQPGQEPGAQPGQEPGAQPGQEPGAQPCQEPGAQPGAQPGAQPGAQPGAQPGAQPGAQPGAQPGAQPARQGDHCPLGPGRCCRLHTVRASLEDLGWADWVLSPREVQVTMCIGACPSQFRAANLHAQIKTSLHRLKPDTVPAPCCVPASYNPMVLIQKTDTGVSLQTYDDLLAKDCHCI
modifications: Moiety C conjugated at linker C41
[2]
  Body weight reduction at 30 nmol/kg (% reduction compared to vehicle)(Day11): 20.7%
  Cumulative food intake reduction at 30 nmol/kg (% reduction compared to vehicle)(Day11): 46.2%
[3]
  Cmax: 69.8 nmol/L
  AUC0-24 h: 1.2753 µM·h
  Terminal t1/2: 20.4 h
  Tmax: 13.3 h

B7: MLC085: fusion polypeptide SEQ ID NO: 377 conjugated with Moiety B at 37C of Linker (conjugate)
chain: HGEGTFTSDVSSYLEEQAAKEFIAWLVRGGGGQEPGAQPGQEPGAQPGQEPGAQPGQEPGAQPGQEPCQAPGQEPGAQPGAQPGAQPGAQPGAQPGAQPGAQPGAQPGAQPARQGDHCPLGPGRCCRLHTVRASLEDLGWADWVLSPREVQVTMCIGACPSQFRAANLHAQIKTSLHRLKPDTVPAPCCVPASYNPMVLIQKTDTGVSLQTYDDLLAKDCHCI
modifications: Moiety B conjugated at linker Cys37
[2]
  Body weight reduction at 30 nmol/kg (% reduction compared to vehicle)(Day11): 23.8%
  Cumulative food intake reduction at 30 nmol/kg (% reduction compared to vehicle)(Day11): 40.1%

B8: MLC091: fusion polypeptide SEQ ID NO: 380 conjugated with Moiety B at 35C of Linker (conjugate)
chain: HGEGTFTSDVSSYLEEQAAKEFIAWLVRGGGGAQPGAQPGAQPGAQPGAQPGAQPGAQPGAQPGQCPGAQPGQEPGAQPGQEPGAQPGQEPGAQPGQEPGAQPGQEPGAQPARQGDHCPLGPGRCCRLHTVRASLEDLGWADWVLSPREVQVTMCIGACPSQFRAANLHAQIKTSLHRLKPDTVPAPCCVPASYNPMVLIQKTDTGVSLQTYDDLLAKDCHCI
modifications: Moiety B conjugated at linker Cys35
[2]
  Body weight reduction at 30 nmol/kg (% reduction compared to vehicle)(Day11): 22.7%
  Cumulative food intake reduction at 30 nmol/kg (% reduction compared to vehicle)(Day11): 38.1%

B9: MLC087: fusion polypeptide SEQ ID NO: 378 conjugated with Moiety B at 41C of Linker (conjugate)
chain: HGEGTFTSDVSSYLEEQAAKEFIAWLVRGGGGAQPGAQPGAQPGAQPGAQPGAQPGAQPGAQPGQEPGAQPCQEPGAQPGQEPGAQPGQEPGAQPGQEPGAQPGQEPGAQPARQGDHCPLGPGRCCRLHTVRASLEDLGWADWVLSPREVQVTMCIGACPSQFRAANLHAQIKTSLHRLKPDTVPAPCCVPASYNPMVLIQKTDTGVSLQTYDDLLAKDCHCI
modifications: Moiety B conjugated at linker Cys41
[2]
  Body weight reduction at 30 nmol/kg (% reduction compared to vehicle)(Day11): 22.7%
  Cumulative food intake reduction at 30 nmol/kg (% reduction compared to vehicle)(Day11): 31.8%

B10: MLC088: fusion polypeptide SEQ ID NO: 378 conjugated with Moiety C at 41C of Linker (conjugate)
chain: HGEGTFTSDVSSYLEEQAAKEFIAWLVRGGGGAQPGAQPGAQPGAQPGAQPGAQPGAQPGAQPGQEPGAQPCQEPGAQPGQEPGAQPGQEPGAQPGQEPGAQPGQEPGAQPARQGDHCPLGPGRCCRLHTVRASLEDLGWADWVLSPREVQVTMCIGACPSQFRAANLHAQIKTSLHRLKPDTVPAPCCVPASYNPMVLIQKTDTGVSLQTYDDLLAKDCHCI
modifications: Moiety C conjugated at linker Cys41
[2]
  Body weight reduction at 30 nmol/kg (% reduction compared to vehicle)(Day11): 22.4%
  Cumulative food intake reduction at 30 nmol/kg (% reduction compared to vehicle)(Day11): 34.8%

B11: MLC092: fusion polypeptide SEQ ID NO: 380 conjugated with Moiety C at 35C of Linker (conjugate)
chain: HGEGTFTSDVSSYLEEQAAKEFIAWLVRGGGGAQPGAQPGAQPGAQPGAQPGAQPGAQPGAQPGQCPGAQPGQEPGAQPGQEPGAQPGQEPGAQPGQEPGAQPGQEPGAQPARQGDHCPLGPGRCCRLHTVRASLEDLGWADWVLSPREVQVTMCIGACPSQFRAANLHAQIKTSLHRLKPDTVPAPCCVPASYNPMVLIQKTDTGVSLQTYDDLLAKDCHCI
modifications: Moiety C conjugated at linker Cys35
[2]
  Body weight reduction at 30 nmol/kg (% reduction compared to vehicle)(Day11): 22.2%
  Cumulative food intake reduction at 30 nmol/kg (% reduction compared to vehicle)(Day11): 33.9%

B12: MLC023: unconjugated GLP-1/GDF15 fusion protein (protein)
chain: HGEGTFTSDVSSYLEEQAAKEFIAWLVRGGGGQEPGQEPGQEPARQGDHCPLGPGRCCRLHTVRASLEDLGWADWVLSPREVQVTMCIGACPSQFRAANLHAQIKTSLHRLKPDTVPAPCCVPASYNPMVLIQKTDTGVSLQTYDDLLAKDCHCI
[1]
  Body weight reduction at 30 nmol/kg (% reduction compared to vehicle)(Day11): 12.5%
  Cumulative food intake reduction at 30 nmol/kg (% reduction compared to vehicle)(Day11): 31.7%
